Target: Plasmodium falciparum plasmoredoxin (Plasmodium falciparum)
Assay: SEC; PfPlrx without TCEP, at least partially oxidized

## Plasmodium falciparum plasmoredoxin (natural protein)
  stoichiometry N: 2
